Read-outs that look alike come from different tables or passages of the source.
Assays:
[1] = target: T1, soluble form of the PRL receptor (UniProt P16471 25-234, limits assumed); experiment: SPR (Biacore 3000), soluble PRL receptor amine-coupled to CM5 chip, prolactin molecule injected at 500 nM
T1 construct: extracellular domain; It gives no residues, tag or species; also called prolactin receptor; immobilized receptor
T1 sequence (looked up): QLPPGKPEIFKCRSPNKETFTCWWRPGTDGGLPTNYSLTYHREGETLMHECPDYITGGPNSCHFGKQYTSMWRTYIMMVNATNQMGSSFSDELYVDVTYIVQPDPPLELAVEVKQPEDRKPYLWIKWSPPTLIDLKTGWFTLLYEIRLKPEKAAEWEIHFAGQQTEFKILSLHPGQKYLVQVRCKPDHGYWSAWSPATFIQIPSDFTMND
Method: The soluble form of the PRL receptor (25 μg/ml in 10 mM sodium acetate, pH 3.0) was injected into a Biacore 3000 instrument at a flow rate of 5 μl/min and coupled to a CM5 sensor chip by amine coupling chemistry. […] Data evaluation was performed in BiaEvaluation 4.1. Regeneration was accomplished with 4.5 M MgCl₂ between runs.
Using the assay as described in Example 8, the binding of N-terminally pegylated versions of the prolactin antagonist PRL(12-199) Q12S G129R to the prolactin receptor was determined.

[2] = target: T2, hPRLR on stably transfected BaF/3 cells (human, UniProt P16471 25-622); experiment: cell-based or functional assay
T2 sequence (looked up): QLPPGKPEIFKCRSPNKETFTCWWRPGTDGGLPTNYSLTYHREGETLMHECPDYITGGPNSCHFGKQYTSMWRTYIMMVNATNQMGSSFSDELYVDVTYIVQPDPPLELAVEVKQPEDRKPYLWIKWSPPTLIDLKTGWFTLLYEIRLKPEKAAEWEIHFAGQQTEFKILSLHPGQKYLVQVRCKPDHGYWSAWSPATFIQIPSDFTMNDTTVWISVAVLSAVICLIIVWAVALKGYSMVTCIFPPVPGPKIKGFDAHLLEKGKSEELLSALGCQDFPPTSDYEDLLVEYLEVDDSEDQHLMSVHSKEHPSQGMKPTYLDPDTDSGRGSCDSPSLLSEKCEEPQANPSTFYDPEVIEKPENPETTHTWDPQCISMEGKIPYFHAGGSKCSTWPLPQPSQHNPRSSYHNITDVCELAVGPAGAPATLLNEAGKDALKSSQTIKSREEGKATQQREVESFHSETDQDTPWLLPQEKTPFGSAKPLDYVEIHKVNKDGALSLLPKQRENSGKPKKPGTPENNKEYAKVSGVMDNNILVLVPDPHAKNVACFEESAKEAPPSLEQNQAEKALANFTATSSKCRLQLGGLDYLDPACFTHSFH

[3] = target: T2, hPRLR on stably transfected BaF/3 cells; experiment: cell-based or functional assay; remark: listed apart in the source

B1: PRL wildtype (ligand)
chain: LPICPGGAARCQVTLRDLFDRAVVLSHYIHNLSSEMFSEFDKRYTHGRGFITKAINSCHTSSLATPEDKEQAQQMNQKDFLSLIVSILRSWNEPLYHLVTEVRGMQEAPEAILSKAVEIEEQTKRLLEGMELIVSQVHPETKENEIYPVWSGLPSLQMADEESRLSAYYNLLHCLRRDSHKIDNYLKLLKCRIIHNNNC
notes: also called wtPRL; human prolactin
Kd [1]: 32 nM
EC50, proliferation (AlamarBlue) of BaF/3 cells stably transfected with hPRLR [2]: 0.15 nM
EC50, proliferation (AlamarBlue) of BaF/3 cells stably transfected with hPRLR [3]: 0.15 nM

B2: N^alpha1-(3-(20 kDa-mPEGyl)propyl)PRL S61 G129R ("PRL S61A G129R PEG20k") (ligand)
chain: LPICPGGAARCQVTLRDLFDRAVVLSHYIHNLSSEMFSEFDKRYTHGRGFITKAINSCHTASLATPEDKEQAQQMNQKDFLSLIVSILRSWNEPLYHLVTEVRGMQEAPEAILSKAVEIEEQTKRLLERMELIVSQVHPETKENEIYPVWSGLPSLQMADEESRLSAYYNLLHCLRRDSHKIDNYLKLLKCRIIHNNNC
modifications: N-terminal alpha-amino group (N^alpha1) alkylated with 3-(20 kDa mPEGyl)propyl by reductive amination
Kd [1]: 71 nM
EC50 of PRL in the presence of 1 µM PRL S61A G129R PEG20k, proliferation of BaF/3 cells stably transfected with hPRLR [2]: 4.6 nM

B3: PRL(12-199) Q12S G129R (ligand)
chain: SVTLRDLFDRAVVLSHYIHNLSSEMFSEFDKRYTHGRGFITKAINSCHTSSLATPEDKEQAQQMNQKDFLSLIVSILRSWNEPLYHLVTEVRGMQEAPEAILSKAVEIEEQTKRLLERMELIVSQVHPETKENEIYPVWSGLPSLQMADEESRLSAYYNLLHCLRRDSHKIDNYLKLLKCRIIHNNNC
EC50 of PRL in the presence of 1 µM PRL(12-199) Q12S G129R, proliferation of BaF/3 cells stably transfected with hPRLR [3]: 40 nM

B4: Ser PRL S33A Q73L G129R K190R (ligand)
chain: SLPICPGGAARCQVTLRDLFDRAVVLSHYIHNLASEMFSEFDKRYTHGRGFITKAINSCHTSSLATPEDKEQALQMNQKDFLSLIVSILRSWNEPLYHLVTEVRGMQEAPEAILSKAVEIEEQTKRLLERMELIVSQVHPETKENEIYPVWSGLPSLQMADEESRLSAYYNLLHCLRRDSHKIDNYLKLLRCRIIHNNNC
EC50 of PRL in the presence of 1 µM Ser PRL S33A Q73L G129R K190R, proliferation of BaF/3 cells stably transfected with hPRLR [3]: 531 nM

B5: N^alpha1-(3-(20 kDa-mPEGyl)propyl) Ser PRL S33A Q73L G129R K190R (ligand)
chain: SLPICPGGAARCQVTLRDLFDRAVVLSHYIHNLASEMFSEFDKRYTHGRGFITKAINSCHTSSLATPEDKEQALQMNQKDFLSLIVSILRSWNEPLYHLVTEVRGMQEAPEAILSKAVEIEEQTKRLLERMELIVSQVHPETKENEIYPVWSGLPSLQMADEESRLSAYYNLLHCLRRDSHKIDNYLKLLRCRIIHNNNC
modifications: N-terminal alpha-amino group (N^alpha1, of the added serine) alkylated with 3-(20 kDa mPEGyl)propyl by reductive amination
EC50 of PRL in the presence of 1 µM Ser PRL S33A Q73L G129R K190R PEG20k, proliferation of BaF/3 cells stably transfected with hPRLR [3]: 19 nM

B6: PRL S61A G129R (ligand)
chain: LPICPGGAARCQVTLRDLFDRAVVLSHYIHNLSSEMFSEFDKRYTHGRGFITKAINSCHTASLATPEDKEQAQQMNQKDFLSLIVSILRSWNEPLYHLVTEVRGMQEAPEAILSKAVEIEEQTKRLLERMELIVSQVHPETKENEIYPVWSGLPSLQMADEESRLSAYYNLLHCLRRDSHKIDNYLKLLKCRIIHNNNC
EC50 of PRL in the presence of 1 µM PRL S61A G129R, proliferation of BaF/3 cells stably transfected with hPRLR [2]: 116 nM

B7: N^alpha,13((4-(2-Methyl-4-(10 kDa mPEGyloxy)butanoylamino)butoxy)imino)acetyl G129R-PRL(13-199) (E2) (ligand)
chain: VTLRDLFDRAVVLSHYIHNLSSEMFSEFDKRYTHGRGFITKAINSCHTSSLATPEDKEQAQQMNQKDFLSLIVSILRSWNEPLYHLVTEVRGMQEAPEAILSKAVEIEEQTKRLLERMELIVSQVHPETKENEIYPVWSGLPSLQMADEESRLSAYYNLLHCLRRDSHKIDNYLKLLKCRIIHNNNC
modifications: alpha-amino group of residue 13 carries ((4-(2-methyl-4-(10 kDa mPEGyloxy)butanoylamino)butoxy)imino)acetyl (oxime formed on the periodate-oxidised N-terminal serine of N^alpha,13-seryl G129R-PRL(13-199))
notes: also called N-terminally pegylated PRL(12-199) Q12S G129R (10 kDa PEG)
Kd [1]: 55 nM

B8: N^alpha,13((4-(4-(20 kDa mPEGyloxy)butanoylamino)butoxy)imino)acetyl G129R-PRL(13-199) (E3) (ligand)
chain: VTLRDLFDRAVVLSHYIHNLSSEMFSEFDKRYTHGRGFITKAINSCHTSSLATPEDKEQAQQMNQKDFLSLIVSILRSWNEPLYHLVTEVRGMQEAPEAILSKAVEIEEQTKRLLERMELIVSQVHPETKENEIYPVWSGLPSLQMADEESRLSAYYNLLHCLRRDSHKIDNYLKLLKCRIIHNNNC
modifications: alpha-amino group of residue 13 carries ((4-(4-(20 kDa mPEGyloxy)butanoylamino)butoxy)imino)acetyl (oxime formed on the periodate-oxidised N-terminal serine of N^alpha,13-seryl G129R-PRL(13-199))
notes: also called N-terminally pegylated PRL(12-199) Q12S G129R (20 kDa PEG)
Kd [1]: 70 nM

B9: N^alpha,13((4-(3-(5 kDa mPEGyloxy)propionylamino)butoxy)imino)acetyl G129R-PRL(13-199) (E4) (ligand)
chain: VTLRDLFDRAVVLSHYIHNLSSEMFSEFDKRYTHGRGFITKAINSCHTSSLATPEDKEQAQQMNQKDFLSLIVSILRSWNEPLYHLVTEVRGMQEAPEAILSKAVEIEEQTKRLLERMELIVSQVHPETKENEIYPVWSGLPSLQMADEESRLSAYYNLLHCLRRDSHKIDNYLKLLKCRIIHNNNC
modifications: alpha-amino group of residue 13 carries ((4-(3-(5 kDa mPEGyloxy)propionylamino)butoxy)imino)acetyl (oxime formed on the periodate-oxidised N-terminal serine of N^alpha,13-seryl G129R-PRL(13-199))
notes: also called N-terminally pegylated PRL(12-199) Q12S G129R (5 kDa PEG)
Kd [1]: 42 nM
